{
  "source": "patent US20190135928A1",
  "about": "(Bristol-Myers Squibb, published 2019)",
  "test_in_all_cases": "cell-based or functional assay",
  "key": {"[1]": {"biological_target": "T1, TL1A expressed on transfected CHO cells (Homo sapiens (Human), UniProt O95150 1-251)", "T1 sequence": "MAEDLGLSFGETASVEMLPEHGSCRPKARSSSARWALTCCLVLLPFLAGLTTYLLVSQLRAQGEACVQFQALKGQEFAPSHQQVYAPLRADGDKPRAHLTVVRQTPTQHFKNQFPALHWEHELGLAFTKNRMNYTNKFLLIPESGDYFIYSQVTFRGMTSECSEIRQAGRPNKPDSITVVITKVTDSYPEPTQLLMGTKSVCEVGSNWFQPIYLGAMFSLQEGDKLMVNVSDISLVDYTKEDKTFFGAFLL"}, "[2]": {"biological_target": "T2, human TL1A (in-house) (human, UniProt O95150 57-251, limits assumed)", "T2 sequence": "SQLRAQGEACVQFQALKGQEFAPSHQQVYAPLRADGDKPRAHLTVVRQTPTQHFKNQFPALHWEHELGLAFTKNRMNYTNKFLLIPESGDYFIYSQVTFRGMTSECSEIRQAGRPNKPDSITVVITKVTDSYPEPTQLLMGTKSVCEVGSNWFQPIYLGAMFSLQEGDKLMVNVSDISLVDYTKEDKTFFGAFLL"}, "[3]": {"biological_target": "T2, human TL1A (in-house)", "remark": "listed apart in the source"}, "[4]": {"biological_target": "T3, cynomolgus TL1A (in-house) (cynomolgus monkey, UniProt G7PRK8 57-251)", "T3 sequence": "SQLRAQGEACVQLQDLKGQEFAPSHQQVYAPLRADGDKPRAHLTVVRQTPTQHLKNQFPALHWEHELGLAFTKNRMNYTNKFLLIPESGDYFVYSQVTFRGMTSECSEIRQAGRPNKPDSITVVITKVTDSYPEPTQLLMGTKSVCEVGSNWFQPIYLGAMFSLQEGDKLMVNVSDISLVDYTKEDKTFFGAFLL"}, "[5]": {"biological_target": "T2, human TL1A (in-house)", "remark": "listed apart in the source"}},
  "data": [
    {"binder": "TL1A antibody 10A4.F7.2E8 huIgG4 (antibody, V domains shown) VH: QLQLQESGPGLVKPSETLSLTCTVSGGSISSRSYYWGWIRQPPGKGLEWIGSIYYNGRTYYNPSLKSRVTISVDTSKNQFSLKLSSVTAADTAVYYCAREDYGDYGAFDIWGQGTMVTVSS VL: AIQLTQSPSSLSASVGDRVTITCRASQGISSALAWYQQKPGKAPKLLIYDASSLESGVPSRFSGSGSGTDFTLTISSLQPEDFATYYCQQFNSYPLTFGGGTKVEIKR", "values": [
      {"measurement": "EC50, TL1A-expressing CHO cells + IL-12 + IL-18 driven IFNg (Hu PBMCs)(2.45 mg/ml), Donor A, ELN ref 97305-034", "setting": "[1]", "value": 0.234, "unit": "nM"},
      {"measurement": "EC50, TL1A-expressing CHO cells + IL-12 + IL-18 driven IFNg (Hu PBMCs)(2.45 mg/ml), Donor B, ELN ref 97305-034", "setting": "[1]", "value": 0.214, "unit": "nM"},
      {"measurement": "EC50, TL1A + IL-12 + IL-18 driven IFNg (Hu NKcells)(2.45 mg/ml), Donor A, ELN ref 97305-070", "setting": "[2]", "value": 0.16, "unit": "nM"},
      {"measurement": "EC50, TL1A + IL-12 + IL-18 driven IFNg (Hu NKcells)(2.45 mg/ml), Donor A, ELN ref 97305-075", "setting": "[2]", "value": 0.147, "unit": "nM"},
      {"measurement": "EC50, TL1A + IL-12 + IL-18 driven IFNg (Hu NKcells)(2.45 mg/ml), Donor B, ELN ref 97305-070", "setting": "[2]", "value": 0.253, "unit": "nM"},
      {"measurement": "EC50, TL1A + IL-12 + IL-18 driven IFNg (Hu NKcells)(2.45 mg/ml), Donor B, ELN ref 97305-075", "setting": "[2]", "value": 0.162, "unit": "nM"},
      {"measurement": "EC50, TL1A + IL-12 + IL-18 driven IFNg (Hu Tcells) (2.45 mg/ml), Donor A, ELN ref 97305-062", "setting": "[3]", "value": 0.18, "unit": "nM"},
      {"measurement": "EC50, TL1A + IL-12 + IL-18 driven IFNg (Hu Tcells) (2.45 mg/ml), Donor A, ELN ref 97305-064", "setting": "[3]", "value": 0.235, "unit": "nM"},
      {"measurement": "EC50, TL1A + IL-12 + IL-18 driven IFNg (Hu Tcells) (2.45 mg/ml), Donor A, ELN ref 97305-066", "setting": "[3]", "value": 0.331, "unit": "nM"},
      {"measurement": "EC50, TL1A + IL-12 + IL-18 driven IFNg (Hu Tcells) (2.45 mg/ml), Donor A, ELN ref 97305-077", "setting": "[3]", "value": 0.241, "unit": "nM"},
      {"measurement": "EC50, TL1A + IL-12 + IL-18 driven IFNg (Hu Tcells) (2.45 mg/ml), Donor A, ELN ref 97305-082", "setting": "[3]", "value": 0.034, "unit": "nM"},
      {"measurement": "EC50, TL1A + IL-12 + IL-18 driven IFNg (Hu Tcells) (2.45 mg/ml), Donor A, ELN ref 99932-003797", "setting": "[3]", "value": 0.355, "unit": "nM"},
      {"measurement": "EC50, TL1A + IL-12 + IL-18 driven IFNg (Hu Tcells) (2.45 mg/ml), Donor A, ELN ref 99932-004083", "setting": "[3]", "value": 0.393, "unit": "nM"},
      {"measurement": "EC50, TL1A + IL-12 + IL-18 driven IFNg (Hu Tcells) (2.45 mg/ml), Donor A, ELN ref 99932-004084", "setting": "[3]", "value": 0.367, "unit": "nM"},
      {"measurement": "EC50, TL1A + IL-12 + IL-18 driven IFNg (Hu Tcells) (2.45 mg/ml), Donor A, ELN ref 99932-004439", "setting": "[3]", "value": 0.185, "unit": "nM"},
      {"measurement": "EC50, TL1A + IL-12 + IL-18 driven IFNg (Hu Tcells) (2.45 mg/ml), Donor A, ELN ref 99932-004774", "setting": "[3]", "value": 0.22, "unit": "nM"},
      {"measurement": "EC50, TL1A + IL-12 + IL-18 driven IFNg (Hu Tcells) (2.45 mg/ml), Donor A, ELN ref 99932-004955", "setting": "[3]", "value": 0.172, "unit": "nM"},
      {"measurement": "EC50, TL1A + IL-12 + IL-18 driven IFNg (Hu Tcells) (2.45 mg/ml), Donor B, ELN ref 97305-062", "setting": "[3]", "value": 0.259, "unit": "nM"},
      {"measurement": "EC50, TL1A + IL-12 + IL-18 driven IFNg (Hu Tcells) (2.45 mg/ml), Donor B, ELN ref 97305-064", "setting": "[3]", "value": 0.199, "unit": "nM"},
      {"measurement": "EC50, TL1A + IL-12 + IL-18 driven IFNg (Hu Tcells) (2.45 mg/ml), Donor B, ELN ref 97305-066", "setting": "[3]", "value": 0.347, "unit": "nM"},
      {"measurement": "EC50, TL1A + IL-12 + IL-18 driven IFNg (Hu Tcells) (2.45 mg/ml), Donor B, ELN ref 97305-077", "setting": "[3]", "value": 0.258, "unit": "nM"},
      {"measurement": "EC50, TL1A + IL-12 + IL-18 driven IFNg (Hu Tcells) (2.45 mg/ml), Donor B, ELN ref 97305-082", "setting": "[3]", "value": 0.039, "unit": "nM"},
      {"measurement": "EC50, TL1A + IL-12 + IL-18 driven IFNg (Hu Tcells) (2.45 mg/ml), Donor B, ELN ref 99932-003797", "setting": "[3]", "value": 0.312, "unit": "nM"},
      {"measurement": "EC50, TL1A + IL-12 + IL-18 driven IFNg (Hu Tcells) (2.45 mg/ml), Donor B, ELN ref 99932-004083", "setting": "[3]", "value": 0.311, "unit": "nM"},
      {"measurement": "EC50, TL1A + IL-12 + IL-18 driven IFNg (Hu Tcells) (2.45 mg/ml), Donor B, ELN ref 99932-004084", "setting": "[3]", "value": 0.303, "unit": "nM"},
      {"measurement": "EC50, TL1A + IL-12 + IL-18 driven IFNg (Hu Tcells) (2.45 mg/ml), Donor B, ELN ref 99932-004439", "setting": "[3]", "value": 0.194, "unit": "nM"},
      {"measurement": "EC50, TL1A + IL-12 + IL-18 driven IFNg (Hu Tcells) (2.45 mg/ml), Donor B, ELN ref 99932-004774", "setting": "[3]", "value": 0.319, "unit": "nM"},
      {"measurement": "EC50, TL1A + IL-12 + IL-18 driven IFNg (Hu Tcells) (2.45 mg/ml), Donor B, ELN ref 99932-004955", "setting": "[3]", "value": 0.211, "unit": "nM"},
      {"measurement": "EC50, TL1A + IL-12 + IL-18 driven IFNg (Cyno PBMCs)(2.45 mg/ml), Donor A, ELN ref 97305-067", "setting": "[4]", "value": 0.122, "unit": "nM"},
      {"measurement": "EC50, TL1A + IL-12 + IL-18 driven IFNg (Cyno PBMCs)(2.45 mg/ml), Donor A, ELN ref 97305-071", "setting": "[4]", "value": 0.154, "unit": "nM"},
      {"measurement": "EC50, TL1A + IL-12 + IL-18 driven IFNg (Cyno PBMCs)(2.45 mg/ml), Donor A, ELN ref 97305-074", "setting": "[4]", "value": 0.105, "unit": "nM"},
      {"measurement": "EC50, TL1A + IL-12 + IL-18 driven IFNg (Cyno PBMCs)(2.45 mg/ml), Donor A, ELN ref 97305-076", "setting": "[4]", "value": 0.097, "unit": "nM"},
      {"measurement": "EC50, TL1A + IL-12 + IL-18 driven IFNg (Cyno PBMCs)(2.45 mg/ml), Donor B, ELN ref 97305-067", "setting": "[4]", "value": 0.164, "unit": "nM"},
      {"measurement": "EC50, TL1A + IL-12 + IL-18 driven IFNg (Cyno PBMCs)(2.45 mg/ml), Donor B, ELN ref 97305-071", "setting": "[4]", "value": 0.133, "unit": "nM"},
      {"measurement": "EC50, TL1A + IL-12 + IL-18 driven IFNg (Cyno PBMCs)(2.45 mg/ml), Donor B, ELN ref 97305-074", "setting": "[4]", "value": 0.129, "unit": "nM"},
      {"measurement": "EC50, TL1A + IL-12 + IL-18 driven IFNg (Cyno PBMCs)(2.45 mg/ml), Donor B, ELN ref 97305-076", "setting": "[4]", "value": 0.093, "unit": "nM"},
      {"measurement": "EC50, TL1A-driven phospho-NFkB in Hu Whole Blood(2.45 mg/ml), CD3+CD4-CD8- T-cells, Donor A, no ELN ref printed in this row", "setting": "[5]", "value": 0.83, "unit": "nM"},
      {"measurement": "EC50, TL1A-driven phospho-NFkB in Hu Whole Blood(2.45 mg/ml), CD4+ T-cells, Donor A, ELN ref A010F-003", "setting": "[5]", "value": 2.64, "unit": "nM"},
      {"measurement": "EC50, TL1A-driven phospho-NFkB in Hu Whole Blood(2.45 mg/ml), CD4+ T-cells, Donor A, ELN ref A010F-007", "setting": "[5]", "value": 0.77, "unit": "nM"},
      {"measurement": "EC50, TL1A-driven phospho-NFkB in Hu Whole Blood(2.45 mg/ml), CD4+ T-cells, Donor B, ELN ref A010F-003", "setting": "[5]", "value": 2.94, "unit": "nM"},
      {"measurement": "EC50, TL1A-driven phospho-NFkB in Hu Whole Blood(2.45 mg/ml), CD4+ T-cells, Donor B, ELN ref A010F-007", "setting": "[5]", "value": 3.24, "unit": "nM"},
      {"measurement": "EC50, TL1A-driven phospho-NFkB in Hu Whole Blood(2.45 mg/ml), CD8+ T-cells, Donor A, no ELN ref printed in this row", "setting": "[5]", "value": 0.85, "unit": "nM"}
    ]}
  ]
}
